19 molecules from patent publication US20210324028A1 (Pfizer, published 2021) can be followed below.

One assay addresses T1, human IL-2Rβ (human, UniProt P14784 27-240, limits assumed).
T1 construct: also called hIL-2Rβ; IL-2 receptor beta
T1 sequence (looked up): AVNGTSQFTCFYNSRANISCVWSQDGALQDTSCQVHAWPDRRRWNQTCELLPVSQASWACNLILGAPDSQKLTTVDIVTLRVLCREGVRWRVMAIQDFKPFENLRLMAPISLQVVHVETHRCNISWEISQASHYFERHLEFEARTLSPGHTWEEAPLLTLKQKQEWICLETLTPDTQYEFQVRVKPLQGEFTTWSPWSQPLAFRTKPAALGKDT
In words: SPR, steady state.

For the next assay, the target named is T2, human IL-15Rα (human, UniProt Q13261 31-205, limits assumed).
T2 construct: also called hIL-15Rα; IL-15 receptor alpha
T2 sequence (Q13261 31-205 limits assumed): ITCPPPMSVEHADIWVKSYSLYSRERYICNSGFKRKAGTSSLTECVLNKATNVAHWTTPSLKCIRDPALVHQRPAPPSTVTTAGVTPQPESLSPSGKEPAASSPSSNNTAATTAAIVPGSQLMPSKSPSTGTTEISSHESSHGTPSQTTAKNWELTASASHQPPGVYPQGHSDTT
In words: SPR, steady state. For orientation: Surface plasmon resonance follows binding to a sensor surface in real time, without labels.

B1: hIL-15 V49R/K11N (ligand)
chain: NWVNVISDLKNIEDLIQSMHIDATLYTESDVHPSCKVTAMKCFLLELQRISLESGDASIHDTVENLIILANNSLSSNGNVTESGCKECEELEEKNIKEFLQSFVHIVQMFINTGGGGSGHHHHHHHHGGGLNDIFEAQKIEWHE
Regarding B1, the results for the Kd with human IL-2Rβ and with human IL-15Rα were 291 nM and 217 nM, respectively.

B2: hIL-15 V49R/K11S (ligand)
chain: NWVNVISDLKSIEDLIQSMHIDATLYTESDVHPSCKVTAMKCFLLELQRISLESGDASIHDTVENLIILANNSLSSNGNVTESGCKECEELEEKNIKEFLQSFVHIVQMFINTGGGGSGHHHHHHHHGGGLNDIFEAQKIEWHE
For B2, the Kd with human IL-2Rβ was found to be 453 nM; with human IL-15Rα, 194 nM.

B3: hIL-15 V49R/L69I (ligand)
chain: NWVNVISDLKKIEDLIQSMHIDATLYTESDVHPSCKVTAMKCFLLELQRISLESGDASIHDTVENLIIIANNSLSSNGNVTESGCKECEELEEKNIKEFLQSFVHIVQMFINTGGGGSGHHHHHHHHGGGLNDIFEAQKIEWHE
For the molecule B3, the values for the Kd with human IL-2Rβ and in the assay with human IL-15Rα were 306 nM and 93.1 nM, respectively.

B4: hIL-15 V49R/L69V (ligand)
chain: NWVNVISDLKKIEDLIQSMHIDATLYTESDVHPSCKVTAMKCFLLELQRISLESGDASIHDTVENLIIVANNSLSSNGNVTESGCKECEELEEKNIKEFLQSFVHIVQMFINTGGGGSGHHHHHHHHGGGLNDIFEAQKIEWHE
Take B4: the Kd with human IL-2Rβ is above 1000 nM; with human IL-15Rα it was 85.5 nM.

B5: hIL-15 V49R/K11V (ligand)
chain: NWVNVISDLKVIEDLIQSMHIDATLYTESDVHPSCKVTAMKCFLLELQRISLESGDASIHDTVENLIILANNSLSSNGNVTESGCKECEELEEKNIKEFLQSFVHIVQMFINTGGGGSGHHHHHHHHGGGLNDIFEAQKIEWHE
Turning to B5, the dissociation constant (Kd) with human IL-2Rβ amounted to 110 nM; in the assay with human IL-15Rα, 142 nM.

B6: hIL-15 V49R/L69S (ligand)
chain: NWVNVISDLKKIEDLIQSMHIDATLYTESDVHPSCKVTAMKCFLLELQRISLESGDASIHDTVENLIISANNSLSSNGNVTESGCKECEELEEKNIKEFLQSFVHIVQMFINTGGGGSGHHHHHHHHGGGLNDIFEAQKIEWHE
As for B6, the Kd was above 500 nM with human IL-2Rβ and 78.2 nM in the assay with human IL-15Rα.

B7: hIL-15 V49R/K11T (ligand)
chain: NWVNVISDLKTIEDLIQSMHIDATLYTESDVHPSCKVTAMKCFLLELQRISLESGDASIHDTVENLIILANNSLSSNGNVTESGCKECEELEEKNIKEFLQSFVHIVQMFINTGGGGSGHHHHHHHHGGGLNDIFEAQKIEWHE
Take B7: the values for the Kd with human IL-2Rβ and with human IL-15Rα were 225 nM and 169 nM, respectively.

B8: hIL-15 V49R/L69M (ligand)
chain: NWVNVISDLKKIEDLIQSMHIDATLYTESDVHPSCKVTAMKCFLLELQRISLESGDASIHDTVENLIIMANNSLSSNGNVTESGCKECEELEEKNIKEFLQSFVHIVQMFINTGGGGSGHHHHHHHHGGGLNDIFEAQKIEWHE
Consider B8, for which the Kd with human IL-2Rβ is above 1000 nM; with human IL-15Rα, 74.5 nM.

B9: hIL-15 V49R/M109D (ligand)
chain: NWVNVISDLKKIEDLIQSMHIDATLYTESDVHPSCKVTAMKCFLLELQRISLESGDASIHDTVENLIILANNSLSSNGNVTESGCKECEELEEKNIKEFLQSFVHIVQDFINTGGGGSGHHHHHHHHGGGLNDIFEAQKIEWHE
Consider B9, for which the Kd in the assay with human IL-2Rβ was 339 nM; with human IL-15Rα, 288 nM.

B10: hIL-15 V49R/L69A (ligand)
chain: NWVNVISDLKKIEDLIQSMHIDATLYTESDVHPSCKVTAMKCFLLELQRISLESGDASIHDTVENLIIAANNSLSSNGNVTESGCKECEELEEKNIKEFLQSFVHIVQMFINTGGGGSGHHHHHHHHGGGLNDIFEAQKIEWHE
B10: the Kd with human IL-2Rβ was above 500 nM; in the assay with human IL-15Rα, 82.9 nM.

B11: hIL-15 V49R/L69D (ligand)
chain: NWVNVISDLKKIEDLIQSMHIDATLYTESDVHPSCKVTAMKCFLLELQRISLESGDASIHDTVENLIIDANNSLSSNGNVTESGCKECEELEEKNIKEFLQSFVHIVQMFINTGGGGSGHHHHHHHHGGGLNDIFEAQKIEWHE
With B11, the equilibrium dissociation constant (Kd) with human IL-2Rβ is above 500 nM; with human IL-15Rα it was 65.6 nM.

B12: hIL-15 V49R/L69T (ligand)
chain: NWVNVISDLKKIEDLIQSMHIDATLYTESDVHPSCKVTAMKCFLLELQRISLESGDASIHDTVENLIITANNSLSSNGNVTESGCKECEELEEKNIKEFLQSFVHIVQMFINTGGGGSGHHHHHHHHGGGLNDIFEAQKIEWHE
B12: the Kd with human IL-2Rβ is above 1000 nM; in the assay with human IL-15Rα, 63.6 nM.

B13: hIL-15 V49R/M109K (ligand)
chain: NWVNVISDLKKIEDLIQSMHIDATLYTESDVHPSCKVTAMKCFLLELQRISLESGDASIHDTVENLIILANNSLSSNGNVTESGCKECEELEEKNIKEFLQSFVHIVQKFINTGGGGSGHHHHHHHHGGGLNDIFEAQKIEWHE
Regarding B13, the Kd in the assay with human IL-2Rβ is above 500 nM; with human IL-15Rα, 215 nM.

B14: hIL-15 V49R/K11R (ligand)
chain: NWVNVISDLKRIEDLIQSMHIDATLYTESDVHPSCKVTAMKCFLLELQRISLESGDASIHDTVENLIILANNSLSSNGNVTESGCKECEELEEKNIKEFLQSFVHIVQMFINTGGGGSGHHHHHHHHGGGLNDIFEAQKIEWHE
For B14, the figures for the Kd with human IL-2Rβ and with human IL-15Rα were 138 nM and 140 nM, respectively.

B15: hIL-15 V49R/M109A (ligand)
chain: NWVNVISDLKKIEDLIQSMHIDATLYTESDVHPSCKVTAMKCFLLELQRISLESGDASIHDTVENLIILANNSLSSNGNVTESGCKECEELEEKNIKEFLQSFVHIVQAFINTGGGGSGHHHHHHHHGGGLNDIFEAQKIEWHE
With B15, the Kd with human IL-2Rβ was above 500 nM; with human IL-15Rα, 198 nM.

B16: hIL-15 V49R/L69E (ligand)
chain: NWVNVISDLKKIEDLIQSMHIDATLYTESDVHPSCKVTAMKCFLLELQRISLESGDASIHDTVENLIIEANNSLSSNGNVTESGCKECEELEEKNIKEFLQSFVHIVQMFINTGGGGSGHHHHHHHHGGGLNDIFEAQKIEWHE
Turning to B16, the dissociation constant Kd is above 1000 nM with human IL-2Rβ and 47.8 nM with human IL-15Rα.

B17: hIL-15 V49R/K11Y (ligand)
chain: NWVNVISDLKYIEDLIQSMHIDATLYTESDVHPSCKVTAMKCFLLELQRISLESGDASIHDTVENLIILANNSLSSNGNVTESGCKECEELEEKNIKEFLQSFVHIVQMFINTGGGGSGHHHHHHHHGGGLNDIFEAQKIEWHE
For B17, the Kd with human IL-2Rβ came out at 143 nM; in the assay with human IL-15Rα, 219 nM.

B18: hIL-15 V49R/K11Q (ligand)
chain: NWVNVISDLKQIEDLIQSMHIDATLYTESDVHPSCKVTAMKCFLLELQRISLESGDASIHDTVENLIILANNSLSSNGNVTESGCKECEELEEKNIKEFLQSFVHIVQMFINTGGGGSGHHHHHHHHGGGLNDIFEAQKIEWHE
As to B18, the Kd with human IL-2Rβ was found to be 107 nM; with human IL-15Rα, 156 nM.

B19: hIL-15 V49R/M109S (ligand)
chain: NWVNVISDLKKIEDLIQSMHIDATLYTESDVHPSCKVTAMKCFLLELQRISLESGDASIHDTVENLIILANNSLSSNGNVTESGCKECEELEEKNIKEFLQSFVHIVQSFINTGGGGSGHHHHHHHHGGGLNDIFEAQKIEWHE
For B19, the Kd came to 362 nM with human IL-2Rβ and 190 nM with human IL-15Rα.

Usually Kd stands for the equilibrium constant for the complex coming apart. Lower therefore signals tighter binding.
